Values belong to the substance of their own block, whether it stands above or below them.
Assays:
[1] = biological target: MHC class II molecules on MHC class II-expressing Raji cells (human); experiment: direct ELISA, plate-immobilised Raji cells; 5% BSA, 10,000 cells; 31.25 ng/ml
[2] = biological target: MHC class II molecules on MHC class II-expressing Raji cells (human); experiment: transfer cell ELISA, Raji cells; 125 ng/ml; plate row C
[3] = biological target: MHC class II molecules on MHC class II-expressing Raji cells (human); experiment: direct ELISA, plate-immobilised Raji cells; 5% BSA, 5,000 cells; 15.625 ng/ml
[4] = biological target: MHC class II molecules on MHC class II-expressing Raji cells (human); experiment: direct ELISA, plate-immobilised Raji cells; 10% FBS, 2,500 cells; 1000 ng/ml
[5] = biological target: MHC class II molecules on MHC class II-expressing Raji cells (human); experiment: transfer cell ELISA, Raji cells; 15.63 ng/ml; plate row D
[6] = biological target: MHC class II molecules on MHC class II-expressing Raji cells (human); experiment: direct ELISA, plate-immobilised Raji cells; 5% BSA, 2,500 cells; 62.5 ng/ml
[7] = biological target: MHC class II molecules on MHC class II-expressing Raji cells (human); experiment: direct ELISA, plate-immobilised Raji cells; 10% FBS, 5,000 cells; 62.5 ng/ml
[8] = biological target: MHC class II molecules on MHC class II-expressing Raji cells (human); experiment: transfer cell ELISA, Raji cells; 7.813 ng/ml; plate row D
[9] = biological target: MHC class II molecules on MHC class II-expressing Raji cells (human); experiment: transfer cell ELISA, Raji cells; 31.25 ng/ml; plate row C
[10] = biological target: MHC class II molecules on MHC class II-expressing Raji cells (human); experiment: transfer cell ELISA, Raji cells; 15.63 ng/ml; plate row C
[11] = biological target: MHC class II molecules on MHC class II-expressing Raji cells (human); experiment: direct ELISA, plate-immobilised Raji cells; 5% BSA, 10,000 cells; 15.625 ng/ml
[12] = biological target: MHC class II molecules on MHC class II-expressing Raji cells (human); experiment: direct ELISA, plate-immobilised Raji cells; 5% BSA, 5,000 cells; 250 ng/ml
[13] = biological target: MHC class II molecules on MHC class II-expressing Raji cells (human); experiment: transfer cell ELISA, Raji cells; 125 ng/ml; plate row D
[14] = biological target: MHC class II molecules on MHC class II-expressing Raji cells (human); experiment: direct ELISA, plate-immobilised Raji cells; 5% BSA, 2,500 cells; 250 ng/ml
[15] = biological target: MHC class II molecules on MHC class II-expressing Raji cells (human); experiment: direct ELISA, plate-immobilised Raji cells; 5% BSA, 5,000 cells; 1000 ng/ml
[16] = biological target: MHC class II molecules on MHC class II-expressing Raji cells (human); experiment: direct ELISA, plate-immobilised Raji cells; 10% FBS, 10,000 cells; 125 ng/ml
[17] = biological target: MHC class II molecules on MHC class II-expressing Raji cells (human); experiment: direct ELISA, plate-immobilised Raji cells; 10% FBS, 5,000 cells; 125 ng/ml
[18] = biological target: MHC class II molecules on MHC class II-expressing Raji cells (human); experiment: direct ELISA, plate-immobilised Raji cells; 10% FBS, 5,000 cells; 31.25 ng/ml
[19] = biological target: MHC class II molecules on MHC class II-expressing Raji cells (human); experiment: direct ELISA, plate-immobilised Raji cells; 5% BSA, 10,000 cells; 500 ng/ml
[20] = biological target: MHC class II molecules on MHC class II-expressing Raji cells (human); experiment: direct ELISA, plate-immobilised Raji cells; 10% FBS, 2,500 cells; 15.625 ng/ml
[21] = biological target: MHC class II molecules on MHC class II-expressing Raji cells (human); experiment: direct ELISA, plate-immobilised Raji cells; 10% FBS, 10,000 cells; 31.25 ng/ml
[22] = biological target: MHC class II molecules on MHC class II-expressing Raji cells (human); experiment: BLI; immobilised sample, Raji cells in solution; pH 7.0 control of FIG. 21
[23] = biological target: MHC class II molecules on MHC class II-expressing Raji cells (human); experiment: direct ELISA, plate-immobilised Raji cells; 0.5% Casein, 5,000 cells; 31.25 ng/ml
[24] = biological target: MHC class II molecules on MHC class II-expressing Raji cells (human); experiment: direct ELISA, plate-immobilised Raji cells; 0.5% Casein, 2,500 cells; 15.625 ng/ml
[25] = biological target: MHC class II molecules on MHC class II-expressing Raji cells (human); experiment: direct ELISA, plate-immobilised Raji cells; 0.5% Casein, 10,000 cells; 31.25 ng/ml
[26] = biological target: MHC class II molecules on MHC class II-expressing Raji cells (human); experiment: direct ELISA, plate-immobilised Raji cells; 0.5% Casein, 2,500 cells; 31.25 ng/ml
[27] = biological target: MHC class II molecules on MHC class II-expressing Raji cells (human); experiment: BLI; immobilised sample, Raji cells in solution; dark control of FIG. 23
[28] = biological target: MHC class II molecules on MHC class II-expressing Raji cells (human); experiment: BLI; IMP321 sample at 100% binding potency, Raji cells in solution; relative to reference standard
[29] = biological target: MHC class II molecules on MHC class II-expressing Raji cells (human); experiment: direct ELISA, plate-immobilised Raji cells; 3% gelatin, 10,000 cells; 62.5 ng/ml
[30] = biological target: MHC class II molecules on MHC class II-expressing Raji cells (human); experiment: direct ELISA, plate-immobilised Raji cells; 3% gelatin, 2,500 cells; 15.625 ng/ml
[31] = biological target: MHC class II molecules on MHC class II-expressing Raji cells (human); experiment: direct ELISA, plate-immobilised Raji cells; 0.5% Casein, 5,000 cells; 15.625 ng/ml
[32] = biological target: MHC class II molecules on MHC class II-expressing Raji cells (human); experiment: direct ELISA, plate-immobilised Raji cells; 0.5% Casein, 5,000 cells; 125 ng/ml
[33] = biological target: MHC class II molecules on MHC class II-expressing Raji cells (human); experiment: direct ELISA, plate-immobilised Raji cells; 3% gelatin, 5,000 cells; 1000 ng/ml

OD (ELISA signal) [1]: 0.31 OD
OD (ELISA signal) [2]: 0.166 OD
OD (ELISA signal) [3]: 0.274 OD
OD (ELISA signal) [4]: 2.39 OD
OD (ELISA signal) [5]: 0.029 OD
OD (ELISA signal) [6]: 0.297 OD
OD (ELISA signal) [7]: 0.28 OD
OD (ELISA signal) [8]: 0.02 OD
OD (ELISA signal) [9]: 0.042 OD
OD (ELISA signal) [10]: 0.035 OD
OD (ELISA signal) [11]: 0.366 OD
OD (ELISA signal) [12]: 1.09 OD
OD (ELISA signal) [13]: 0.206 OD
OD (ELISA signal) [14]: 0.893 OD
OD (ELISA signal) [15]: 1.81 OD
OD (ELISA signal) [16]: 0.377 OD
OD (ELISA signal) [17]: 0.443 OD
OD (ELISA signal) [18]: 0.304 OD
OD (ELISA signal) [19]: 1.3 OD
OD (ELISA signal) [20]: 0.27 OD
OD (ELISA signal) [21]: 0.279 OD
Substance: IMP321 treated with Peptide-N-Glycosidase F (PNGase F) (Fc fusion)

Bioactivity (binding) [22]: 95%
OD (ELISA signal) [23]: 0.143 OD
OD (ELISA signal) [24]: 0.168 OD
OD (ELISA signal) [25]: 0.18 OD
OD (ELISA signal) [26]: 0.149 OD
Bioactivity (binding) [27]: 100%
Potency determined by BLI assay [28]: 98%
OD (ELISA signal) [29]: 0.417 OD
OD (ELISA signal) [30]: 0.295 OD
OD (ELISA signal) [31]: 0.207 OD
OD (ELISA signal) [32]: 0.197 OD
OD (ELISA signal) [33]: 2.31 OD
Substance: IMP321, recombinant soluble human LAG-3Ig fusion protein (Fc fusion)

From patent US20190361034A1
